{
  "source": "patent US20140155325A1",
  "about": "(Janssen / Centocor, published 2014)",
  "key": {"[1]": {"target": "human EGFR (epidermal growth factor receptor) on cells (human) (UniProt P00533)"}, "[2]": {"target": "human EGFR (epidermal growth factor receptor) on cells (human) (UniProt P00533)", "remark": "listed apart in the source"}, "[3]": {"target": "human EGFR (epidermal growth factor receptor) on cells (human) (UniProt P00533)", "remark": "listed apart in the source"}, "[4]": {"target": "human EGFR (epidermal growth factor receptor) on cells (human) (UniProt P00533)", "test": "cell-based or functional assay"}, "[5]": {"target": "recombinant human c-Met Fc chimera (human) (UniProt P08581)", "test": "SPR (ProteOn), protocol of Example 3"}, "[6]": {"target": "recombinant human c-Met Fc chimera (human) (UniProt P08581)", "test": "HGF competition (biotinylated HGF on coated c-Met-Fc)"}, "[7]": {"target": "human c-Met (hepatocyte growth factor receptor) on cells (human, UniProt P08581 25-1390)", "test": "cell-based or functional assay"}, "[8]": {"target": "recombinant human c-Met Fc chimera (human) (UniProt P08581)", "test": "SPR (ProteOn), c-Met-Fc captured by anti-human Fc"}, "[9]": {"target": "T1, human EGFR (epidermal growth factor receptor) on cells (human, UniProt P00533 25-1210)", "test": "cell-based or functional assay"}, "[10]": {"target": "T1, human EGFR (epidermal growth factor …)", "test": "cell-based or functional assay", "remark": "listed apart in the source"}, "[11]": {"target": "T1, human EGFR (epidermal growth factor …)", "test": "cell-based or functional assay", "remark": "listed apart in the source"}, "[12]": {"target": "T1, human EGFR (epidermal growth factor …)", "test": "A431 cell EGF competition (biotinylated EGF)"}, "[13]": {"target": "T2, recombinant human extracellular domain of EGFR fused to an IgG1 Fc (human, UniProt P00533 25-645)", "T2 construct": "Bought from R&D Systems; captured on anti-human Fc IgG in the SPR assays; also called EGFR-Fc; recombinant EGFR extracellular domain; not shown: IgG1 Fc of the bought fusion protein (R&D Systems)", "test": "SPR (ProteOn), EGFR-Fc captured by anti-human Fc", "experimental": "Select EGFR-binding FN3 domains were screened to identify those with slow off-rates (koff) in binding to EGFR-Fc on a ProteOn XPR-36 instrument (Bio-Rad) to facilitate selection of high affinity binders. Goat anti-human Fc IgG (R&D systems), at a concentration of 5 μg/mL, was directly immobilized via amine coupling (at pH 5.0) on all 6 ligand channels in horizontal orientation on the chip with a flow rate of 30 μL/min in PBS containing 0.005% Tween-20. The immobilization densities averaged about 1500 Response Units (RU) with less than 5% variation among different channels. EGFR-Fc was captured on the anti-human Fc IgG surface to a density around 600 RU in vertical ligand orientation. All tested FN3 domains were normalized to a concentration of 1 μM and tested for their binding in horizontal orientation. All 6 analyte channels were used for the FN3 domains to maximize screening throughput. The dissociation phase was monitored for 10 minutes at a flow rate of 100 μL/min. The inter-spot binding signals were used as references to monitor non-specific binding between analytes and the immobilized IgG surface, and were subtracted from all binding responses. […]\nBinding affinity of selected EGFR-binding FN3 domains to recombinant EGFR extracellular domain was further characterized by surface Plasmon resonance methods using a Proteon Instrument (BioRad). […]"}, "[14]": {"target": "T1, human EGFR (epidermal growth factor …)", "test": "A431 cell binding, anti-His-Alexa488"}, "[15]": {"target": "T1, human EGFR (epidermal growth factor …)", "test": "cell-based or functional assay", "remark": "listed apart in the source"}},
  "data": [
    {"binder": "ECB5 (designed binder, not shown: small tags and cut ends) MLPAPKNLVVSEVTEDSARLSWADPHGFYDSFLIQYQESEKVGEAIVLTVPGSERSYDLTGLKPGTEYTVSIYGVHNVYKDTNMRGLPLSAIFTTGGGGSGGGGSGGGGSGGGGSMLPAPKNLVVSRVTEDSARLSWTAPDAAFDSFWIRYFEFLGSGEAIVLTVPGSERSYDLTGLKPGTEYVVNIMGVKGGKISPPLSAIFTT", "values": [
      {"measurement": "IC50, inhibition of EGF-stimulated EGFR phosphorylation (relative pEGFR, RCLU) in H596 cells, +2.5 ng/mL EGF [+2.5ng/mL EGF), IC50 table]", "setting": "[1]", "result": 83.2, "unit": "nM"},
      {"measurement": "IC50, inhibition of EGF-stimulated EGFR phosphorylation (relative pEGFR, RCLU) in H441 cells, +10 ng/mL EGF [+10ng/mL EGF), IC50 table]", "setting": "[2]", "result": 2.3, "unit": "nM"},
      {"measurement": "IC50, inhibition of EGF-stimulated EGFR phosphorylation (relative pEGFR, RCLU) in H292 cells, +50 ng/mL EGF [+50ng/mL EGF), IC50 table]", "setting": "[3]", "result": 76.6, "unit": "nM"},
      {"measurement": "fold decrease of the IC50 for inhibition of EGFR phosphorylation in NCI-H441 cells against monospecific P53A1R5-17v2", "setting": "[4]", "result": 30, "unit": "fold"}
    ]},
    {"binder": "ECB109 (designed binder, not shown: small tags and cut ends) MLPAPKNLVVSEVTEDSARLSWDDPHAFYESFLIQYQESEKVGEAIVLTVPGSERSYDLTGLKPGTEYTVSIYGVHNVYKDTNIRGLPLSAIFTTAPAPAPAPAPLPAPKNLVVSRVTEDSARLSWTAPDAAFDSFWIRYFEFLGSGEAIVLTVPGSERSYDLTGLKPGTEYVVNILSVKGGSISPPLSAIFTT", "values": [
      {"measurement": "Kd", "setting": "[5]", "result": 2.1, "unit": "nM"}
    ]},
    {"binder": "P114AR7P93-H9 (designed binder, not shown: small tags and cut ends) LPAPKNLVVSRVTEDSARLSWTAPDAAFDSFWIRYFEFLGSGEAIVLTVPGSERSYDLTGLKPGTEYVVQIIGVKGGHISLPLSAIFTT", "values": [
      {"measurement": "IC50", "setting": "[6]", "result": 2.9, "unit": "nM"},
      {"measurement": "IC50, inhibition of HGF-stimulated c-Met phosphorylation (relative pc-Met, RCLU) in H596 cells, +5 ng/mL HGF [+5ng/mL HGF), IC50 table]", "setting": "[7]", "result": 80.8, "unit": "nM"},
      {"measurement": "Kd", "setting": "[8]", "result": 3.3, "unit": "nM"}
    ]},
    {"binder": "P114AR7P95-F10 (designed binder, not shown: small tags and cut ends) LPAPKNLVVSRVTEDSARLSWTAPDAAFDSFWIRYFEFTTAGEAIVLTVPGSERSYDLTGLKPGTEYVVNIMGVKGGSISPPLSAIFTT", "values": [
      {"measurement": "IC50", "setting": "[6]", "result": 1.4, "unit": "nM"},
      {"measurement": "Kd", "setting": "[8]", "result": 4.2, "unit": "nM"}
    ]},
    {"binder": "ECB15 (designed binder, not shown: small tags and cut ends) MLPAPKNLVVSEVTEDSARLSWDDPWAFYESFLIQYQESEKVGEAIVLTVPGSERSYDLTGLKPGTEYTVSIYGVHNVYKDTNMRGLPLSAIFTTAPAPAPAPAPLPAPKNLVVSRVTEDSARLSWTAPDAAFDSFWIRYFEFLGSGEAIVLTVPGSERSYDLTGLKPGTEYVVNIMGVKGGKISPPLSAIFTT", "values": [
      {"measurement": "Kd", "setting": "[5]", "result": 2.6, "unit": "nM"}
    ]},
    {"binder": "ECB94 (designed binder, not shown: small tags and cut ends) MLPAPKNLVVSEVTEDSARLSWDDPWAFYESFLIQYQESEKVGEAIVLTVPGSERSYDLTGLKPGTEYTVSIYGVHNVYKDTNIRGLPLSAIFTTAPAPAPAPAPLPAPKNLVVSRVTEDSARLSWTAPDAAFDSFWIRYFEFLGSGEAIVLTVPGSERSYDLTGLKPGTEYVVNILGVKGGKISPPLSAIFTT", "values": [
      {"measurement": "Kd", "setting": "[5]", "result": 4.3, "unit": "nM"}
    ]},
    {"binder": "ECB95 (designed binder, not shown: small tags and cut ends) MLPAPKNLVVSEVTEDSARLSWDDPWAFYESFLIQYQESEKVGEAIVLTVPGSERSYDLTGLKPGTEYTVSIYGVHNVYKDTNIRGLPLSAIFTTAPAPAPAPAPLPAPKNLVVSRVTEDSARLSWTAPDAAFDSFWIRYFEFVGSGEAIVLTVPGSERSYDLTGLKPGTEYVVNILGVKGGSISPPLSAIFTT", "values": [
      {"measurement": "Kd", "setting": "[5]", "result": 6.2, "unit": "nM"}
    ]},
    {"binder": "ECB96 (designed binder, not shown: small tags and cut ends) MLPAPKNLVVSEVTEDSARLSWDDPWAFYESFLIQYQESEKVGEAIVLTVPGSERSYDLTGLKPGTEYTVSIYGVHNVYKDTNIRGLPLSAIFTTAPAPAPAPAPLPAPKNLVVSRVTEDSARLSWTAPDAAFDSFWIRYFEFVSKGDAIVLTVPGSERSYDLTGLKPGTEYVVNILGVKGGSISPPLSAIFTT", "values": [
      {"measurement": "Kd", "setting": "[5]", "result": 22.1, "unit": "nM"}
    ]},
    {"binder": "ECB106 (designed binder, not shown: small tags and cut ends) MLPAPKNLVVSEVTEDSARLSWDDPHAFYESFLIQYQESEKVGEAIVLTVPGSERSYDLTGLKPGTEYTVSIYGVHNVYKDTNIRGLPLSAIFTTAPAPAPAPAPLPAPKNLVVSRVTEDSARLSWTAPDAAFDSFWIRYFEFLGSGEAIVLTVPGSERSYDLTGLKPGTEYVVNILGVKGGKISPPLSAIFTT", "values": [
      {"measurement": "Kd", "setting": "[5]", "result": 5.1, "unit": "nM"}
    ]},
    {"binder": "ECB107 (designed binder, not shown: small tags and cut ends) MLPAPKNLVVSEVTEDSARLSWDDPHAFYESFLIQYQESEKVGEAIVLTVPGSERSYDLTGLKPGTEYTVSIYGVHNVYKDTNIRGLPLSAIFTTAPAPAPAPAPLPAPKNLVVSRVTEDSARLSWTAPDAAFDSFWIRYFEFVGSGEAIVLTVPGSERSYDLTGLKPGTEYVVNILGVKGGSISPPLSAIFTT", "values": [
      {"measurement": "Kd", "setting": "[5]", "result": 9, "unit": "nM"}
    ]},
    {"binder": "ECB108 (designed binder, not shown: small tags and cut ends) MLPAPKNLVVSEVTEDSARLSWDDPHAFYESFLIQYQESEKVGEAIVLTVPGSERSYDLTGLKPGTEYTVSIYGVHNVYKDTNIRGLPLSAIFTTAPAPAPAPAPLPAPKNLVVSRVTEDSARLSWTAPDAAFDSFWIRYFEFVSKGDAIVLTVPGSERSYDLTGLKPGTEYVVNILGVKGGSISPPLSAIFTT", "values": [
      {"measurement": "Kd", "setting": "[5]", "result": 25.5, "unit": "nM"}
    ]},
    {"binder": "P53A1R5-17 (designed binder, not shown: small tags and cut ends) LPAPKNLVVSEVTEDSLRLSWADPHGFYDSFLIQYQESEKVGEAINLTVPGSERSYDLTGLKPGTEYTVSIYGVHNVYKDTNMRGLPLSAEFTT", "values": [
      {"measurement": "IC50, inhibition of EGF-stimulated EGFR phosphorylation (relative pEGFR, RCLU) in H596 cells, +2.5 ng/mL EGF [+2.5ng/mL EGF), IC50 table]", "setting": "[9]", "result": 35.4, "unit": "nM"},
      {"measurement": "IC50, inhibition of EGF-stimulated EGFR phosphorylation (relative pEGFR, RCLU) in H441 cells, +10 ng/mL EGF [+10ng/mL EGF), IC50 table]", "setting": "[10]", "result": 70.2, "unit": "nM"},
      {"measurement": "IC50, inhibition of EGF-stimulated EGFR phosphorylation (relative pEGFR, RCLU) in H292 cells, +50 ng/mL EGF [+50ng/mL EGF), IC50 table]", "setting": "[11]", "result": 151, "unit": "nM"}
    ]},
    {"binder": "P54AR4-47 (designed binder) LPAPKNLVVSEVTEDSLRLSWWDPFSFYDSFLIQYQESEKVGEAINLTVPGSERSYDLTGLKPGTEYTVSIYGVHNVYKDTNMRGLPLSAEFTT", "values": [
      {"measurement": "IC50", "setting": "[12]", "result": 7.1, "unit": "nM"},
      {"measurement": "Kd", "setting": "[13]", "result": 2.51, "unit": "nM"},
      {"measurement": "EC50", "setting": "[14]", "result": 8.6, "unit": "nM"},
      {"measurement": "NCI-H292 Growth IC50", "setting": "[15]", "result": 44, "unit": "nM"},
      {"measurement": "NCI-H322 Growth IC50", "setting": "[15]", "result": 39, "unit": "nM"},
      {"measurement": "Phospho-EGFR IC50 (EGF-stimulated, A431 cells)", "setting": "[15]", "result": 295, "unit": "nM"}
    ]},
    {"binder": "Bispecific Centyrin (83-H9) (designed binder) MLPAPKNLVVSEVTEDSARLSWDDPWAFYESFLIQYQESEKVGEAIVLTVPGSERSYDLTGLKPGTEYTVSIYGVHNVYKDTNMRGLPLSAIFTTGGGGSGGGGSGGGGSGGGGSMLPAPKNLVVSRVTEDSARLSWTAPDAAFDSFWIRYFEFLGSGEAIVLTVPGSERSYDLTGLKPGTEYVVQIIGVKGGHISLPLSAIFTT", "values": [
      {"measurement": "IC50, inhibition of HGF-stimulated c-Met phosphorylation (relative pc-Met, RCLU) in H596 cells, +5 ng/mL HGF [+5ng/mL HGF), IC50 table]", "setting": "[7]", "result": 0.0789, "unit": "nM"}
    ]},
    {"binder": "P54CR4-31 (designed binder, not shown: C-terminal poly-histidine tag) LPAPKNLVVSEVTEDSLRLSWTAPDAAFDSFLIQYQESEKVGEAINLTVPGSERSYDLTGLKPGTEYTVSIYGVLGSYVFEHDVMLPLSAEFTT", "values": [
      {"measurement": "EC50", "setting": "[14]", "result": "> 20000", "unit": "nM"}
    ]}
  ]
}
